Biological target: biotinylated recombinant human c-MET ECD (HGFR extracellular domain) (human) (UniProt P08581)
Experiment: HGF competition ELISA: HGF on the plate, biotinylated c-MET ECD pre-incubated with the antibody; blocked ligand HGF

224G11 (antibody)
IC50 (read off the curve): 3 nM

— patent publication US20180326085A1
